# Reference: the supplement of paper PMC7877785
# ± gives the uncertainty stated by the source.
# Assay: self-splicing fitness, log relative to wild type (ln ratio); higher = more splicing; Tetrahymena group I intron in knt gene, E. coli kanamycin selection, DiMSum; sequences stand for … in CUCUCU…GGAGGGAAAAGUUAUCAGGCAUGCACCUGGUAGCUAGUCUUUAAACCAAUAGAUUGCAUCGGUUUAAAAGGCAAGACCGUCAAAUUGCGGGAAAGGGGUCAACAGCCGUUCAGUACCAAGUCUCAGGGGAAACUUUGAGAUGGCCUUGCAAAGGGUAUGGUAAUAAGCUGACGGACAUGGUCCUAACCACGCAGCCAAGUCCUAAGUCAACAGAUCUUCUGUUGAUAUGGAUGCAGUUCACAGACUAAAUGUCGGUCGGGGAAGAUGUAUUCUUCUCAUAAGAUAUAGUCGGACCUCUCCUUAAUGGGAGCUAGCGGAUGAAGUGAUGCAACACUGGAGCCGCUGGGAACUAAUUUGUAUGCGAAAGUAUAUUGAUUAGUUUUGGAGUACUCGUGGUCG
# Summary of the method: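 Library with all eight P1ex-region intron nucleotides randomised, intron inside the knt kanamycin-resistance gene on pET-22b(+), in E. coli BL21(DE3). Cells grew overnight at 37°C or 30°C on LB agar with or without 25 μg/mL kanamycin (plus 100 μg/mL carbenicillin, 50 μM IPTG, 0.2% rhamnose), in six replicate transformations. Pooled colonies were amplicon-sequenced on Illumina HiSeq 2500. DiMSum fitness is the error-weighted combination of wild-type-normalised replicate fold changes, kanamycin versus none.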
Sequence,self-splicing fitness (ln) (30 °C),self-splicing fitness (ln) (37 °C)
UUUUAGCAAUAUUACGCCAG,-2.13 ± 0.47,–
UUUUAGCAAUAUUACGCCCG,-0.629 ± 0.33,–
UUUUAGCAAUAUUACGCCUA,-1 ± 0.2,-0.553 ± 0.22
UUUUAGCAAUAUUACGCGUG,-0.683 ± 0.088,-0.0858 ± 0.096
UUUUAGCAAUAUUACGCUUA,-1.1 ± 0.16,-0.69 ± 0.15
UUUUAGCAAUAUUACGGCUG,-0.732 ± 0.48,-0.495 ± 0.38
UUUUAGCAAUAUUACGGGGA,-1.56 ± 0.16,-0.366 ± 0.14
UUUUAGCAAUAUUACGGUUU,-3.26 ± 0.47,-0.0249 ± 0.25
UUUUAGCAAUAUUACGUAGU,-1.9 ± 0.37,–
UUUUAGCAAUAUUACGUAUA,-2.59 ± 0.42,–
UUUUAGCAAUAUUACGUGCG,-1.42 ± 0.17,-0.84 ± 0.13
UUUUAGCAAUAUUACGUGCU,-2.43 ± 0.47,-0.459 ± 0.22
